Data: publication PMC10229228, “Structural insights into a regulatory mechanism of FIR RRM1–FUSE interaction”

How the values were obtained:
Conditions in all cases: protein: recombinant; tags: N-terminal His6, removed by TEV; single strand
FIR RRM1-2 WT [1] = target: T1, FIR RRM1-2 WT (UniProt Q9UHX1-2 101-293); assay: ITC; ITC: 25 mM HEPES pH 7.5, 150 mM NaCl, 0.5 mM TCEP, 20 C; protein 160-240 uM titrated into ssDNA 40-50 uM
FIR RRM1-2 Y115F [2] = target: T2, FIR RRM1-2 Y115F (UniProt Q9UHX1-2 101-293, Y115F); assay: X-ray crystallography (1.65 A); ITC: 25 mM HEPES pH 7.5, 150 mM NaCl, 0.5 mM TCEP, 20 C; protein 160-240 uM titrated into ssDNA 40-50 uM
FIR RRM1-2 WT [3] = target: T1, FIR RRM1-2 WT; assay: X-ray crystallography (2.05 A); ethylene glycol contacts the bound guanine; ITC: 25 mM HEPES pH 7.5, 150 mM NaCl, 0.5 mM TCEP, 20 C; protein 160-240 uM titrated into ssDNA 40-50 uM
FIR RRM1-2 Y115F [4] = target: T2, FIR RRM1-2 Y115F; assay: ITC; ITC: 25 mM HEPES pH 7.5, 150 mM NaCl, 0.5 mM TCEP, 20 C; protein 160-240 uM titrated into ssDNA 40-50 uM

T1 sequence (Q9UHX1 118-310): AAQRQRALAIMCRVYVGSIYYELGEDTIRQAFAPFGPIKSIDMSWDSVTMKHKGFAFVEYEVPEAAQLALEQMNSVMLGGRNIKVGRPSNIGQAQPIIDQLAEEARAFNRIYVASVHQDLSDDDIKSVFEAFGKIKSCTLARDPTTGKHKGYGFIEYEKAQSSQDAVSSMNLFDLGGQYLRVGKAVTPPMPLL
T2 sequence (Q9UHX1 118-310 Y132F): as the sequence (Q9UHX1 118-310) above, with Y15F counted along it

B1: TTGTTTT (ssDNA)
DNA: TTGTTTT
B1 showed a Kd (FIR RRM1-2 WT [1]) of 2 µM.

B2: FUSE 15-nt (ssDNA)
DNA: TTTTTATTTTGTGTT
B2: binds (FIR RRM1-2 Y115F [2]); binds (FIR RRM1-2 WT [3]).

B3: TAATTTT (ssDNA)
DNA: TAATTTT
Work on B3 yielded a Kd (FIR RRM1-2 Y115F [4]) of roughly 6 µM.

B4: TTATTTT (ssDNA)
DNA: TTATTTT
B4 was tested, and the Kd (FIR RRM1-2 WT [1]) was 11 µM.
